Laboratory results taken from patent US20150203577A1 (Chugai, published 2015).
Numbering of substitutions follows the chain as printed.

T1: mouse FcγRIII (mouse, UniProt P08508 31-215)
T1 construct: Extracellular domain with C-terminal His tag; also called mFcγRIII; mFcgRIII
T1 chain: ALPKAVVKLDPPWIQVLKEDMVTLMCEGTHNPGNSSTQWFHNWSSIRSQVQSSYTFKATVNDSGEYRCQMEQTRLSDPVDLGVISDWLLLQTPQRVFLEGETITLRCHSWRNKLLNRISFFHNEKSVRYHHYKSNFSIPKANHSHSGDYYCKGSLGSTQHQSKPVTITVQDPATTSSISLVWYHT

T2: mouse FcγRII (mouse, UniProt P08101 30-210)
T2 construct: Extracellular domain with C-terminal His tag; also called mFcγRII; mFcgRII
T2 sequence: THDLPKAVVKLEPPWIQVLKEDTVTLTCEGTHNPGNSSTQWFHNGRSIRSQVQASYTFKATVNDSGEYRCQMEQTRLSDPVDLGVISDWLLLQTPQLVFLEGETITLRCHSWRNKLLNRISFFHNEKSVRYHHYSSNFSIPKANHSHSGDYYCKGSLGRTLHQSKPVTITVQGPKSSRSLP

B1: MB850 (antibody, mouse IgG1, kappa)
heavy: QVQLQESGPGLVKPSETLSLTCAVSGHSISHDHAWSWVRQPPGEGLEWIGFISYSGITNYNPSLQGRVTISRDNSKNTLYLQMNSLRAEDTAVYYCARSLARTTAMDYWGEGTLVTVSSAKTTPPSVYPLAPGSAAQTNSMVTLGCLVKGYFPEPVTVTWNSGSLSSGVHTFPAVLQSDLYTLSSSVTVPSSTWPSETVTCNVAHPASSTKVDKKIVPRDCGCKPCICEPNEVELVFIFPPKPKDVLTITLTPKVTCVVVDISKDDPEVQFSWFVDDVEVHTAQTQPREEQFNSTFRSVSELPIMHQDWLNGKEFKCRVNSDGFPAPIYKTISKTKGRPKAPQVYTIPPPKEQMAKDKVSLTCMITDFFPEDITVEWQWNGQPAENYKNTQPIMDTDGSYFVYSKLNVQKSNWEAGNTFTCSVLHEGLHNHHTEKSLSHSPGK
light: not shown
notes: CH name; VH H237 + CH, L chain MRAL-k0; copies: 2 + 2
B2: MB854 (antibody, mouse IgG1, kappa)
heavy: B1 heavy with Q291L
light: not shown
notes: as for B1
B3: MB853 (antibody, mouse IgG1, kappa)
heavy: B1 heavy with Q291L, P327Y, Y329E
light: not shown
notes: as for B1
B4: MB859 (antibody, mouse IgG1, kappa)
heavy: B1 heavy with P327Y, Y329E, K330R
light: not shown
notes: as for B1
B5: MB856 (antibody, mouse IgG1, kappa)
heavy: B1 heavy with N320D, P327Y, Y329E
light: not shown
notes: as for B1
B6: MB860 (antibody, mouse IgG1, kappa)
heavy: B1 heavy with K330R
light: not shown
notes: as for B1
B7: MB857 (antibody, mouse IgG1, kappa)
heavy: B1 heavy with N320D
light: not shown
notes: as for B1
B8: MB852 (antibody, mouse IgG1, kappa)
heavy: B1 heavy with Q291L, N320D, Y329E
light: not shown
notes: as for B1
B9: MB858 (antibody, mouse IgG1, kappa)
heavy: B1 heavy with N320D, Y329E, K330R
light: not shown
notes: as for B1
B10: MB851 (antibody, mouse IgG1, kappa)
heavy: B1 heavy with Y329E, K330R
light: not shown
notes: as for B1
B11: MB855 (antibody, mouse IgG1, kappa)
heavy: B1 heavy with Q291L, Y329E, K330R
light: not shown
notes: as for B1

Molecular target: T1, mouse FcγRIII
Assay: SPR (Biacore T200); KD of H237-MB630/MRAL-k0 / KD of variant

Relative mFcγRIII-binding activity (MB630 = 1) [fold]	Binder
4.3	B1
6.84	B2
6.2	B3
3.9	B4
4.95	B5
4.07	B6
4.92	B7
10	B8
6.92	B9
5.23	B10
6.21	B11

molecular target: T2, mouse FcγRII; assay: as above

Relative mFcγRII-binding activity (MB630 = 1) [fold]	Binder
4.12	B1
4.77	B2
3.31	B3
3.22	B4
4.23	B5
3.74	B6
4.21	B7
5.76	B8
5.86	B9
4.13	B10
3.41	B11

Molecular target: T1, mouse FcγRIII
Assay: SPR (Biacore T200); KD of H237-mIgG1/MRAL-k0 / KD of variant

relative mFcγRIII-binding activity (mIgG1 = 1) [fold]	Binder
0.79	B1
1.25	B2
1.13	B3
0.71	B4
0.91	B5
0.75	B6
0.9	B7
1.83	B8
1.27	B9
0.96	B10
1.14	B11

molecular target: T2, mouse FcγRII; assay: as above

relative mFcγRII-binding activity (mIgG1 = 1) [fold]	Binder
43.7	B1
50.6	B2
35	B3
34.2	B4
44.8	B5
39.6	B6
44.6	B7
61	B8
62	B9
43.8	B10
36.2	B11
